Measured values: patent US20090215689A1 (TECNOGEN S P A, published 2009)

Columns and labels:
[1] = biological target: T1, Human recombinant FGF2 (Fibroblast growth factor-2) (human, UniProt P09038 134-288, limits assumed); assay: solid phase assay: peptide-coated wells (200 µg/well), FGF2 80 nM, detection with anti-FGF2 antibody
Procedure: (§1) The response was recorded at the end of injection and plotted as a function of the antagonist concentration.
(§2) Then, wells were overcoated for 2 hours at room temperature with 5% dry milk in coating buffer. […] Then, 100 μl/well of the chromogen substrate 2,29-azinobis(3-ethylbenzthiazolinesulfonic acid) were added. Absorbance values were read at 405 nm in an automatic ELISA reader.

[2] = biological target: T1, Human recombinant FGF2 (Fibroblast …); assay: SPR competition: FGF2 0.8 µM over immobilized PTX3 with the peptide in the mobile phase
Procedure: The response was recorded at the end of injection and plotted as a function of the antagonist concentration. […] The response was recorded at the end of injection and plotted as a function of the antagonist concentration.
(§3) A BIAcore X apparatus (BIAcore Inc, Piscataway, N.J.) was used.

[3] = biological target: T1, Human recombinant FGF2 (Fibroblast …); assay: solid phase assay: peptide-coated wells (200 µg/well), FGF2 80 nM, detection with anti-FGF2 antibody; remark: listed apart in the source
Procedure: as §2

[4] = biological target: T1, Human recombinant FGF2 (Fibroblast …); assay: SPR competition: competitor with FGF2 0.8 µM in the mobile phase over immobilized PTX3
From the text: as §3

[5] = biological target: T1, Human recombinant FGF2 (Fibroblast …); assay: SPR competition (printed as ID50): competitor with FGF2 0.8 µM in the mobile phase over immobilized PTX3
Procedure: as §1, §3

T1 sequence (P09038 134-288 limits assumed): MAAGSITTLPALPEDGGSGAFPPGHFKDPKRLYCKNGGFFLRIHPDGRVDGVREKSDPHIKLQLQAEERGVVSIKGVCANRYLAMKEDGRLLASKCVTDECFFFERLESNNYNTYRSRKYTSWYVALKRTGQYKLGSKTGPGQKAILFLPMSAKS

B1: synthetic peptide PTX3(82-101) (peptide)
peptide: RGELQRLREELGRLAESLAR
B1: no binding (tested: FGF2 80 nM) [1].

B2: synthetic peptide PTX3(82-96) (peptide)
peptide: RGELQRLREELGRLA
B2: no binding (tested: about 3000 µM) [2].

B3: synthetic peptide PTX3(31-60) (peptide)
peptide: DNEIDNGLHPTEDPTPCDCGQEHSEWDKLF
B3: no binding (tested: FGF2 80 nM) [3].

B4: synthetic peptide PTX3(57-85) (peptide)
peptide: DKLFIMLENSQMRERMLLQATDDVLRGEL
B4: no binding (tested: FGF2 80 nM) [3].

B5: synthetic peptide PTX3(82-110) (peptide)
peptide: RGELQRLREELGRLAESLARPCAPGAPAE
notes: also called parental peptide PTX3(82-110)
For B5, the “fold lower potency than free full length PTX3” value [4] was 30 fold and the IC50 [5] was 30 µM.
